Test results taken from patent publication US20050158311A1.
One block for each molecule: values may come before it.

What was measured:
Assay in all cases: cell-based or functional assay
[1] = target: endogenous Ryk of mouse (brain cell lysate; DRG explants) (mouse) (UniProt Q01887)
[2] = target: over-expressed Ryk (from a transfected DNA construct expressing Ryk)
[3] = target: Dishevelled (overexpressed in 293T cells)
[4] = target: endogenous Ryk of 293T cells (human) (UniProt P34925)
Sequence of UniProt P34925 (P34925 26-607 limits assumed): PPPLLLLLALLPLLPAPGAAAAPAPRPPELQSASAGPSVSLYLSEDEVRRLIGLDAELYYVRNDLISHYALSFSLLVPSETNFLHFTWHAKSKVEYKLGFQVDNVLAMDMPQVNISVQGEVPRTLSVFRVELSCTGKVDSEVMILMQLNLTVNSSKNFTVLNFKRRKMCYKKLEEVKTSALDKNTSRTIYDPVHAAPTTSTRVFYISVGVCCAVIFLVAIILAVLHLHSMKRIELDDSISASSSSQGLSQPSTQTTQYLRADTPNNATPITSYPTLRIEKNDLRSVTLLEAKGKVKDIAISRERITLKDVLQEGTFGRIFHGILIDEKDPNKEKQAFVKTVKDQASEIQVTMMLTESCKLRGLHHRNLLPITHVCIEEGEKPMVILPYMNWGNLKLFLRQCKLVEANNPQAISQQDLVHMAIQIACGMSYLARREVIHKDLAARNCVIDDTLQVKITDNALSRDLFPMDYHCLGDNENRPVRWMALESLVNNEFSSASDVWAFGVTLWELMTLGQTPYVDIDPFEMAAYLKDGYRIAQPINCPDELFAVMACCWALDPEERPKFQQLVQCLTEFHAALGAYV

Sequence of UniProt Q01887 (Q01887 35-594 limits assumed): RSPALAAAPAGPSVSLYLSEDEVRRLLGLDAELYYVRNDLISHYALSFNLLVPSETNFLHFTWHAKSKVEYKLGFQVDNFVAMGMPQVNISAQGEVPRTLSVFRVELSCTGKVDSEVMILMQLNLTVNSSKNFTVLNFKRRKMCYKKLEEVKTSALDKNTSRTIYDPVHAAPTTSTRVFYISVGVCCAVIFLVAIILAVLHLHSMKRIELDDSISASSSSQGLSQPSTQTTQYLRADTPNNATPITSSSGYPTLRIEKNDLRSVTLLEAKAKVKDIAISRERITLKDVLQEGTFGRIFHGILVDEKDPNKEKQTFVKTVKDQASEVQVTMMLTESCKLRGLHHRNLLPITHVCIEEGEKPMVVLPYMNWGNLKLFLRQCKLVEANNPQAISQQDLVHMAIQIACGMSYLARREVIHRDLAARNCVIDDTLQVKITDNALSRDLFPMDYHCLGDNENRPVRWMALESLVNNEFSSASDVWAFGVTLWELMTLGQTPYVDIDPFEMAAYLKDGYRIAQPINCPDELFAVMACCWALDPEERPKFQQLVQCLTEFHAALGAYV

average length of neurites of DRG explants, Ryk siRNA mice against wild type [1]: 2 fold
activation of the TCF-luciferase reporter [2]: 5 fold
Molecule: Wnt3a (Wnt3a conditioned medium) (ligand)

activation of the TCF-luciferase reporter [3]: 25 fold
Molecule: over-expressed Ryk (from a transfected DNA construct expressing Ryk) (receptor)

activation of the TCF-luciferase reporter [4]: 25 fold
fold decrease in TCF-driven transcription in Ryk siRNA-containing 293T cells [4]: 12 fold
B1: Wnt-1 (cotransfected in the TCF-luciferase reporter assay) (ligand, UniProt P04628 28-370, looked up, species assumed)
Proto-oncogene Wnt-1: ANSSGRWWGIVNVASSTNLLTDSKSLQLVLEPSLQLLSRKQRRLIRQNPGILHSVSGGLQSAVRECKWQFRNRRWNCPTAPGPHLFGKIVNRGCRETAFIFAITSAGVTHSVARSCSEGSIESCTCDYRRRGPGGPDWHWGGCSDNIDFGRLFGREFVDSGEKGRDLRFLMNLHNNEAGRTTVFSEMRQECKCHGMSGSCTVRTCWMRLPTLRAVGDVLRDRFDGASRVLYGNRGSNRASRAELLRLEPEDPAHKPPSPHDLVYFEKSPNFCTYSGRLGTAGTAGRACNSSSPALDGCELLCCGRGHRTRTQRVTERCNCTFHWCCHVSCRNCTHTRVLHECL
